Data reported in the supplement of paper PMC7877785.
± gives the uncertainty stated by the source.

Experiment: self-splicing fitness, log relative to wild type (ln ratio); higher = more splicing; Tetrahymena group I intron in knt gene, E. coli kanamycin selection, DiMSum; sequences stand for … in CUCUCU…GGAGGGAAAAGUUAUCAGGCAUGCACCUGGUAGCUAGUCUUUAAACCAAUAGAUUGCAUCGGUUUAAAAGGCAAGACCGUCAAAUUGCGGGAAAGGGGUCAACAGCCGUUCAGUACCAAGUCUCAGGGGAAACUUUGAGAUGGCCUUGCAAAGGGUAUGGUAAUAAGCUGACGGACAUGGUCCUAACCACGCAGCCAAGUCCUAAGUCAACAGAUCUUCUGUUGAUAUGGAUGCAGUUCACAGACUAAAUGUCGGUCGGGGAAGAUGUAUUCUUCUCAUAAGAUAUAGUCGGACCUCUCCUUAAUGGGAGCUAGCGGAUGAAGUGAUGCAACACUGGAGCCGCUGGGAACUAAUUUGUAUGCGAAAGUAUAUUGAUUAGUUUUGGAGUACUCGUGGUCG
Summary of the method: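 Fitness was computed with DiMSum as the error-weighted combination of replicate fold changes, kanamycin versus none, each normalised to wild type. The library randomised all eight intron nucleotides of the P1ex region, with the intron placed in the knt kanamycin-resistance gene on pET-22b(+) in E. coli BL21(DE3). Six replicate transformations were grown overnight at 37°C or 30°C on LB agar with or without 25 μg/mL kanamycin, plus 100 μg/mL carbenicillin, 50 μM IPTG and 0.2% rhamnose. Pooled colonies were amplicon-sequenced on an Illumina HiSeq 2500.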

Sequence | self-splicing fitness (ln) (30 °C) | self-splicing fitness (ln) (37 °C)
GAGAAGCAAUAUUACGUUCU | -4 ± 0.36 | -2.01 ± 0.23
GAGAAGCAAUAUUACGUUUG | -2.98 ± 0.11 | -1.85 ± 0.14
GAGCAGCAAUAUUACGAACU | -1.17 ± 0.12 | -0.227 ± 0.17
GAGCAGCAAUAUUACGACCU | -1.22 ± 0.17 | 0.00279 ± 0.23
GAGCAGCAAUAUUACGAGCU | -2.58 ± 0.12 | -1.88 ± 0.18
GAGCAGCAAUAUUACGAUAU | -2.17 ± 0.13 | -1.17 ± 0.15
GAGCAGCAAUAUUACGCAGC | -3.7 ± 0.21 | -2.61 ± 0.29
GAGCAGCAAUAUUACGCAUG | -3.03 ± 0.34 | -1.67 ± 0.31
GAGCAGCAAUAUUACGCCGU | -1.39 ± 0.12 | -0.525 ± 0.19
GAGCAGCAAUAUUACGCGGG | -2.52 ± 0.21 | -1.96 ± 0.23
GAGCAGCAAUAUUACGGAUC | -0.51 ± 0.12 | -0.724 ± 0.12
GAGCAGCAAUAUUACGGGAA | -3.18 ± 0.26 | -2.05 ± 0.22
GAGCAGCAAUAUUACGGUAC | -2.73 ± 0.14 | -0.416 ± 0.11
GAGCAGCAAUAUUACGGUCC | -2.93 ± 0.18 | -1.63 ± 0.17
GAGCAGCAAUAUUACGUAAC | -1.36 ± 0.11 | -1.13 ± 0.18
GAGCAGCAAUAUUACGUAAU | -1.59 ± 0.063 | -0.994 ± 0.1
GAGCAGCAAUAUUACGUAUU | -2.62 ± 0.066 | -1.32 ± 0.075
GAGCAGCAAUAUUACGUCCC | -0.684 ± 0.11 | -0.465 ± 0.19
GAGCAGCAAUAUUACGUCUU | -3.01 ± 0.19 | -1.23 ± 0.15
GAGCAGCAAUAUUACGUGAU | -2.21 ± 0.082 | -0.968 ± 0.084
GAGCAGCAAUAUUACGUUCC | -3.51 ± 0.17 | -3.28 ± 0.21
GAGGAGCAAUAUUACGACAC | -0.706 ± 0.35 | -0.696 ± 0.31
GAGGAGCAAUAUUACGACUA | -1.32 ± 0.43 | -1.47 ± 0.37
GAGGAGCAAUAUUACGAGGC | -3.47 ± 0.47 | –
GAGGAGCAAUAUUACGGAAU | -3.82 ± 0.37 | –

Sequence | self-splicing fitness (ln) (30 °C) | self-splicing fitness (ln) (37 °C)
GAGGAGCAAUAUUACGGAGG | – | -2.2 ± 0.24
GAGGAGCAAUAUUACGGGAA | -2.81 ± 0.26 | -1.84 ± 0.46
GAGGAGCAAUAUUACGGGAU | -2.69 ± 0.28 | –
GAGGAGCAAUAUUACGGUCU | -3.51 ± 0.48 | -0.511 ± 0.21
GAGGAGCAAUAUUACGUAAA | -3.86 ± 0.17 | -1.32 ± 0.13
GAGGAGCAAUAUUACGUACC | -0.85 ± 0.31 | -0.663 ± 0.27
GAGGAGCAAUAUUACGUAGU | -2.29 ± 0.19 | -2.19 ± 0.3
GAGGAGCAAUAUUACGUGAU | – | -2.02 ± 0.27
GAGGAGCAAUAUUACGUGUC | -3.51 ± 0.27 | -1.91 ± 0.2
GAGUAGCAAUAUUACGAAGU | -2.93 ± 0.18 | -2.1 ± 0.15
GAGUAGCAAUAUUACGACCA | -1.81 ± 0.12 | 0.176 ± 0.15
GAGUAGCAAUAUUACGAGCC | -1.67 ± 0.2 | -1.26 ± 0.19
GAGUAGCAAUAUUACGAUUC | -0.85 ± 0.18 | -0.0237 ± 0.24
GAGUAGCAAUAUUACGCAUC | -2.66 ± 0.32 | -2.17 ± 0.28
GAGUAGCAAUAUUACGCGGA | -2.61 ± 0.17 | -2.06 ± 0.17
GAGUAGCAAUAUUACGCUCG | -1.88 ± 0.28 | -0.561 ± 0.29
GAGUAGCAAUAUUACGCUGU | -3.36 ± 0.23 | -1.48 ± 0.22
GAGUAGCAAUAUUACGCUUA | -1.45 ± 0.13 | -0.422 ± 0.12
GAGUAGCAAUAUUACGGAGC | -2.75 ± 0.23 | -1.8 ± 0.27
GAGUAGCAAUAUUACGGAGU | -3.7 ± 0.27 | -3.05 ± 0.19
GAGUAGCAAUAUUACGGAUA | -2.11 ± 0.25 | -2.41 ± 0.25
GAGUAGCAAUAUUACGGCGC | -0.602 ± 0.14 | 0.407 ± 0.19
GAGUAGCAAUAUUACGGGCG | -1.89 ± 0.12 | -0.779 ± 0.12
GAGUAGCAAUAUUACGGGGC | -2.79 ± 0.28 | -1.98 ± 0.33
GAGUAGCAAUAUUACGGGUU | -2.25 ± 0.14 | -1.81 ± 0.2

Sequence | self-splicing fitness (ln) (30 °C) | self-splicing fitness (ln) (37 °C)
GAGUAGCAAUAUUACGGUGG | -3.37 ± 0.26 | -2.15 ± 0.18
GAGUAGCAAUAUUACGUAAA | – | -0.672 ± 0.33
GAGUAGCAAUAUUACGUAAC | -2.12 ± 0.1 | -2.95 ± 0.17
GAGUAGCAAUAUUACGUCUU | -1.94 ± 0.16 | -1.49 ± 0.17
GAUAAGCAAUAUUACGAGCG | -1.25 ± 0.1 | -0.755 ± 0.11
GAUAAGCAAUAUUACGAUGC | -0.7 ± 0.11 | -0.45 ± 0.11
GAUAAGCAAUAUUACGCAAU | -2.21 ± 0.13 | -0.936 ± 0.16
GAUAAGCAAUAUUACGCAGU | -2.94 ± 0.2 | -1.65 ± 0.24
GAUAAGCAAUAUUACGCCAA | -1.91 ± 0.2 | -2.16 ± 0.22
GAUAAGCAAUAUUACGCCCC | -2.27 ± 0.32 | -1.43 ± 0.33
GAUAAGCAAUAUUACGCCCG | -2.05 ± 0.2 | -0.456 ± 0.24
GAUAAGCAAUAUUACGCCGC | – | -1.99 ± 0.41
GAUAAGCAAUAUUACGCCGG | -1.66 ± 0.2 | -1.06 ± 0.14
GAUAAGCAAUAUUACGCGAC | -1.41 ± 0.14 | -1.54 ± 0.23
GAUAAGCAAUAUUACGCGUG | -0.603 ± 0.072 | -0.471 ± 0.088
GAUAAGCAAUAUUACGCUCU | -2.11 ± 0.18 | -0.116 ± 0.2
GAUAAGCAAUAUUACGGGAA | -2.84 ± 0.25 | -1.99 ± 0.22
GAUAAGCAAUAUUACGGGUA | -1.69 ± 0.14 | -1.37 ± 0.17
GAUAAGCAAUAUUACGGGUC | -3.26 ± 0.14 | -1.81 ± 0.13
GAUAAGCAAUAUUACGGUCU | -2.33 ± 0.12 | -1.46 ± 0.14
GAUAAGCAAUAUUACGGUGA | -1.61 ± 0.093 | -1.1 ± 0.12
GAUAAGCAAUAUUACGGUUA | -0.72 ± 0.12 | 0.108 ± 0.11
GAUAAGCAAUAUUACGUACC | -0.984 ± 0.2 | -0.641 ± 0.21
GAUAAGCAAUAUUACGUCCA | -1.72 ± 0.15 | -0.215 ± 0.17
GAUAAGCAAUAUUACGUGCA | -0.463 ± 0.15 | -1.06 ± 0.18

Sequence | self-splicing fitness (ln) (30 °C) | self-splicing fitness (ln) (37 °C)
GAUAAGCAAUAUUACGUGUC | -2.29 ± 0.21 | -2.5 ± 0.31
GAUCAGCAAUAUUACGAAAA | -0.449 ± 0.2 | -0.691 ± 0.23
GAUCAGCAAUAUUACGAAUA | -0.747 ± 0.11 | -0.471 ± 0.15
GAUCAGCAAUAUUACGAAUC | -3.46 ± 0.41 | -2.61 ± 0.39
GAUCAGCAAUAUUACGACCA | -1.08 ± 0.092 | 0.352 ± 0.15
GAUCAGCAAUAUUACGAGAC | -3.07 ± 0.44 | -1.86 ± 0.13
GAUCAGCAAUAUUACGAUAA | 0.273 ± 0.069 | 0.106 ± 0.076
GAUCAGCAAUAUUACGCACU | 0.181 ± 0.092 | 0.467 ± 0.1
GAUCAGCAAUAUUACGCCAA | -1.95 ± 0.15 | -0.747 ± 0.12
GAUCAGCAAUAUUACGCCGG | -1.75 ± 0.18 | -1.41 ± 0.21
GAUCAGCAAUAUUACGCUAU | -0.967 ± 0.24 | -0.471 ± 0.15
GAUCAGCAAUAUUACGCUCA | -0.493 ± 0.084 | -0.611 ± 0.1
GAUCAGCAAUAUUACGCUCG | 0.0547 ± 0.089 | -0.0564 ± 0.12
GAUCAGCAAUAUUACGGAAC | -0.655 ± 0.094 | -0.0305 ± 0.12
GAUCAGCAAUAUUACGGAAU | -1.27 ± 0.065 | -0.181 ± 0.087
GAUCAGCAAUAUUACGGAGU | -1.16 ± 0.077 | -0.717 ± 0.11
GAUCAGCAAUAUUACGGCCC | -1.65 ± 0.21 | -0.61 ± 0.2
GAUCAGCAAUAUUACGGGGC | -3.2 ± 0.25 | -2.38 ± 0.22
GAUCAGCAAUAUUACGGGUC | -3.38 ± 0.21 | -3.05 ± 0.25
GAUCAGCAAUAUUACGGUGG | -1.36 ± 0.057 | -0.762 ± 0.073
GAUCAGCAAUAUUACGUAGC | -0.999 ± 0.11 | -0.402 ± 0.12
GAUCAGCAAUAUUACGUCCA | -0.96 ± 0.18 | -0.173 ± 0.17
